Experimental data taken from patent US9333268B2, “Methods of treatment with arginine deiminase” (Polaris Group, priority 2012, dated 2016).

Key:
SK-LC-13 = test: Western blot of autophagy-related protein LC3-II; format: cell-based, human; settings: 24 hour incubation
Excerpt: (§1) Following washing, the membranes were then probed with the appropriate secondary antibody before proteins were finally visualized using ECL reagent (Perkin-Elmer, Fremont Calif., USA).
An assay for the formation of the autophagy-related protein LC3-II assessed if treatment with ADI-PEG 20 was able to induce cellular autophagy in SCLC. […] Chloroquine is a known inhibitor of autophagy that disrupts normal lysosomal functions, and thus results in an increase in the cellular level of LC3-II.

[1] = test system: L-arginine and L-citrulline; test: Serum arginine and citrulline by HPLC; format: in vivo, mice
Description: (§2) In order to determine the effect of ADI-PEG 20 treatment on systemic arginine levels, mice sera were analyzed using high-performance liquid chromatography (HPLC). L-arginine and L-citrulline were resolved with a Pickering Laboratories PCX 5200 post-column derivatization instrument (Pickering Laboratories, Mountain View, Calif., USA) at 39° C. reaction temperature and a fluorescence detector. […] Total ADI-PEG 20 levels were measured by ELISA, as described previously (Holtsberg et al, J Control Release 80(1-3):259-271, 2002).

[2] = test system: sarcoma cell lines with low expression of ASS; test: Sarcoma cell line panel treated with ADI-PEG 20; format: cell-based
Caki-1 xenografts = test: Caki-1 renal cell carcinoma xenografts in BALB/c-nude mice; format: in vivo; settings: intramuscular
Description: The activity of ADI-PEG 20 was assessed in mice bearing Caki-1 (ATCC No. HTB-46™) xenografts. Renal cell carcinoma Caki-1 xenografts were established in female BALB/c-nude mice, 3-4 weeks of age with a body weight of 20 g (SLAC, Shanghai, China). To establish the tumors, 5×10^6 cells in media were mixed 1:1 with Matrigel High Concentration (BD Biosciences) and injected subcutaneously in the abdominal area of the mice. Tumor growth was regularly measured and tumor volume calculated using the formula (TV=(length×width^2)/2). When tumors reached an approximate volume of 125 mm^3, ADI-PEG20 was administered at doses level of 160, 320 and 640 IU/m^2 once every week for four weeks by intramuscular injection. Each study group had 9 mice. Mice were euthanized when tumors reached an approximate volume of 1100 mm^3. […] More than 80% tumor inhibition was achieved when 640 IU/m^2 was used.
In an additional experiment, the activity of ADI-PEG 20 as either a single agent or in combination with rapamycin was assessed in mice bearing Caki-1 xenograft. Renal cell carcinoma xenografts were established in female BALB/c-nude mice, 3-4 weeks of age weighing about 20 g (SLAC, Shanghai, China). […] Tumor growth was regularly measured and tumor volume calculated using the formula (TV=(length×width^2)/2). […]

[3] = test system: ASS-negative SCLC cell line SK-LC-13; test: MTS proliferation assay, adherent cells; format: cell-based, human; settings: 0 to 10 mIU ml^−1, 120 h
Description: (§3) To assess the anti-proliferative effect of ADI-PEG 20 on adherent cells, cells were plated a density of 2×10^3 cells per well in a tissue culture 96-microwell plate and allowed to adhere overnight. The following day, cells were treated with ADI-PEG 20 (DesigneRx Pharmaceuticals, Vacaville, Calif., USA, a subsidiary of Polaris Group, San Diego, Calif., USA) ranging from 0 to 10 mIU ml^−1. After incubation for 120 h, cell viability was determined using (3-(4,5-dimethylthiazol-2-yl)-5-(3-carboxymethoxyphenyl)-2-(4-sulfophenyl)-2H-tetrazolium) (MTS, CellTiter 96 AQueous One Solution, Promega, Madison, Wis., USA), according to the manufacturers protocol. Twenty microliters of MTS reagent was added to the appropriate control and assay wells before the plate was incubated for 2 h at 37° C. and absorbance read at 490 nm. Absolute absorbance for each treatment was determined by subtracting the background MTS absorbance, and the mean and standard deviation was calculated. The effect of the autophagy inhibitor chloroquine (Sigma) on cell proliferation was assessed using the MTS assay.

[4] = test system: ASS-negative SCLC cell line SW1271; test: MTS proliferation assay, adherent cells; format: cell-based, human; settings: 0 to 10 mIU ml^−1, 120 h
Description: as §3

[5] = Serum ADI-PEG 20 levels by ELISA; format: in vivo, mice
Description: as §2

SK-LC-13 cells = test: Western blot of active caspase 3; format: cell-based, human
Description: as §1
In order to determine the possible mechanism of the antiproliferative effects of ADI-PEG 20 a FACS analysis of apoptosis by sub-G1 DNA content was performed. Cells were treated for 72 h before the analysis was performed.

ASS-negative AML lines = test: Viability of AML cell lines treated with ADI-PEG 20; format: cell-based
Description: (§4) In this example, it was determined whether ASS negativity would predict for the efficacy of pegylated arginine deiminase (ADI-PEG 20) using AML cell lines and primary AML samples. A lack of ASS protein was identified in three of seven leukemic cell lines (K562, Kasumi and KG-1) and in all nine samples from patients with cytogenetically normal and abnormal karotype AML. Methylation of the ASS promoter correlated with reduced levels of ASS mRNA and absence of ASS expression.
(§5) Primary ASS-negative AML samples with good engraftment in NOD/SCID mice have been identified and studies of the efficacy of ADI-PEG 20 using this primary AML xenograft model have begun. Based on the results described herein and the potential efficacy with low toxicity of arginine deprivation in humans, a phase II trial of ADI-PEG 20 has been planned in patients with relapsed AML.

[6] = test system: ASS-positive control lines, Fujioka and U937; test: as above; format: cell-based
Description: as §4, §5

[7] = test system: ASS-positive colon carcinoma cell line SW1222; test: MTS proliferation assay, adherent cells; format: cell-based; settings: 0 to 10 mIU ml^−1, 120 h
Description: as §3

IC50 ([2]; sensitive cell lines with low expression of ASS): 0.02 to 0.1 µg/mL
B1: ADI-PEG 20: arginine deiminase (ADI) formulated with PEG of 20,000 m.w. (protein)
chain: MSVFDSKFNGIHVYSEIGELETVLVHEPGREIDYITPARLDELLFSAILESHDARKEHQSFVKIMKDRGINVVELTDLVAETYDLASKAAKEEFIETFLEETVPVLTEANKEAVRAFLLSKPTHEMVEFMMSGITKYELGVESENELIVDPMPNLYFTRDPFASVGNGVTIHFMRYIVRRRETLFARFVFRNHPKLVKTPWYYDPAMKMSIEGGDVFIYNNETLVVGVSERTDLDTITLLAKNIKANKEVEFKRIVAINVPKWTNLMHLDTWLTMLDKNKFLYSPIANDVFKFWDYDLVNGGAEPQPQLNGLPLDKLLASIINKEPVLIPIGGAGATEMEIARETNFDGTNYLAIKPGLVIGYDRNEKTNAALKAAGITVLPFHGNQLSLGMGNARCMSMPLSRKDVKW
cellular level of LC3-II (SK-LC-13): clear increase in the detectable cellular level of the protein | citrulline levels ([1]; 1, 2, 5 IU): rose in a dose-dependent relationship to arginine | serum arginine after end of dosing ([1]; 20 days after the last dose (day 40)): returned to normal levels | citrulline levels ([1]; continued dosing, 2 and 5 IU): Little increase in citrulline levels | arginine serum levels ([1]; extended dosing, 1 IU): below the limits of detection | citrulline levels ([1]; extended dosing, 1 IU): increased with extended dosing | serum arginine ([1]; short course of treatment): only temporarily depleted serum arginine | cell cycle and apoptosis ([2]; ASS expression low): cell cycle arrest but not apoptosis | autophagy ([2]; sarcomas that lack ASS): induced autophagy | tumor growth (Caki-1 xenografts; 160, 320 and 640 IU/m^2 weekly for four weeks): inhibited tumor growth in a dose dependent manner | tumor inhibition (Caki-1 xenografts; 640 IU/m^2 weekly for four weeks): More than 80% | proliferation [3]: clear dose-dependent decrease in proliferation | proliferation [4]: clear dose-dependent decrease in proliferation | ADI-PEG 20 serum levels after end of dosing ([5]; administered only up to day 20): return to baseline levels by day 40 | ADI-PEG 20 serum levels ([5]; days 0, 12, 40, 1, 2, 5 IU): dose dependent | activation of caspases (SK-LC-13 cells): no activation of caspases | viability (ASS-negative AML lines): reduced the viability | viability (response to drug-induced arginine deprivation) [6]: resistant | growth [7]: No effect
